Values of other authors, collected in paper PMC4927088.
pKd: −log10 of the molar value.

Target: LPL (UniProt P11151)
Sequence of UniProt P11151 (P11151 29-478): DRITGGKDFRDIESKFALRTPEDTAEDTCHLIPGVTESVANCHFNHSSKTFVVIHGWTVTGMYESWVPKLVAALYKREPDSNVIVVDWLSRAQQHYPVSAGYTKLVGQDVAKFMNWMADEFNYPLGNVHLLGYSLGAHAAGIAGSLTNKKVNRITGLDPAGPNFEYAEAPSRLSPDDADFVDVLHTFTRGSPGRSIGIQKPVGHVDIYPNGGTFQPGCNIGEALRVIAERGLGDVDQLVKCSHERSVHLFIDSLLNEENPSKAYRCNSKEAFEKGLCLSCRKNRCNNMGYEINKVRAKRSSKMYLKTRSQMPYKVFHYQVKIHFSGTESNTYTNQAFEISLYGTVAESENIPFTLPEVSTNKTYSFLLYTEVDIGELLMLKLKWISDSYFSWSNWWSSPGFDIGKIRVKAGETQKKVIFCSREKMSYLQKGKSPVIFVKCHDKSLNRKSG

Question: With GPIHBP1 (from UniProt Q8IV16) as the substance, how does the pKd read?
Answer: 7.60
